The source of these data is publication PMC8092223.

The target in assay [1] is His8-tagged PII protein, PII(WT) (Synechocystis sp. PCC 6803) (UniProt Q55247).
Assay [2] shares this target. The experiment in a line: BLI; Octet K2; His8-tagged PII variant loaded (10 ug/ml) on Ni-NTA sensor tips, free sites blocked with 72 ug/ml PII(ΔT); analyte GST-PirA 125 to 12,000 nM (or tag-free PirA or GST alone); with ADP (0.1 to 2 mM; 2 mM for variants and controls); 30°C; 50 mM Tris-HCl pH 7.4, 150 mM KCl, 2 mM MgCl2, 0.02% lauryldimethylamine oxide, 0.2 mg/ml BSA; KD from concentration versus maximum response.

The target of assay [3] is PII(S49E), phosphomimetic variant, His8-tagged (Synechocystis sp. PCC 6803) (UniProt Q55247). The assay is described as above.

“GST-tagged PirA (Ssr0692, PII-interacting regulator of arginine synthesis) (natural protein)” came in with an NAGK activity (AGPR-coupled assay; 6 ug NAGK, 2.4 ug PII, 0.1 mM arginine, 1 mM ATP, 1 mM ADP) against PirA from 0 to 30 ug in assay [1] of 50%. Further, the Kd in assay [2] was found to be 2900 nM; in assay [3], 2500 nM.
